Data taken from patent US20220323445A1, “REDUCING IMMUNOGENICITY TO PEGLOTICASE” (Horizon Therapeutics Ireland DAC, priority 2020, published 2022).

Columns and labels:
[1] = tested on: patients with chronic gout; conditions: cited from earlier work
[2] = Stability of pegloticase diluted in infusion bags; format: physicochemical; conditions: at 2° C. to 8° C. and at room temperature (20° C. to 25° C.); 0.45% or 0.9% Sodium Chloride
Experimental: Preparation—Vials were visually inspected for particulate matter and discoloration before administration, whenever solution and container permit. Vials were not used if either was present. Using appropriate aseptic technique, 1 mL of pegloticase was withdrawn from the vial into a sterile syringe. Any unused portion of product remaining in the vial was discarded. Syringe contents were injected into a single 250 mL bag of 0.45% or 0.9% Sodium Chloride Injection, United States Pharmacopeia (USP) for IV infusion and was not mixed or diluted with other drugs. The infusion bag containing the dilute pegloticase solution was inverted several times, but not shaken, to ensure thorough mixing.
Pegloticase diluted in infusion bags was stable for 4 hours at 2° C. to 8° C. (36° F. to 46° F.) and at room temperature (20° C. to 25° C., 68° F. to 77° F.); however, the diluted solution was stored under refrigeration, not frozen, protected from light, and used within 4 hours of dilution. Before administration, the diluted solution of pegloticase was allowed to reach room temperature. Pegloticase in a vial or IV infusion fluid was never subjected to artificial heating.

[3] = tested on: anti-pegloticase antibodies; conditions: cited from earlier work
[4] = tested on: patients with uncontrolled gout; assay: Tender joint count (68-point) and swollen joint count (66-point), open-label study; format: in vivo, human; conditions: mITT
Experimental: Tender and Swollen Joint Counts: Tender and swollen (excludes hip) joint counts were recorded at the Week −4 or week −6 (prior to the first dose of MTX) Visit during the MTX Run-in Period for the open-label and randomized studies, respectively; prior to pegloticase infusion at the Day 1 and Weeks 14, 24 and 36 Visits, or at the Day 1 and weeks 6, 14, 20, 24, 30, 36, and 44 visits during the Pegloticase+IMM Period for the open-label and randomized studies, respectively; and at the End of Pegloticase Infusions Visit (if applicable) and the Week 52/End of Study/Early Termination Visit and the Post Treatment 3 and 6 month Follow-up visits. Tender and swollen joint counts were assessed by physical examination.

[5] = Day 1 vs Methotrexate Baseline, n=14
[6] = Early Termination Visit vs Methotrexate Baseline, n=3
[7] = Early Termination Visit vs Pegloticase Baseline, n=3
[8] = End of Pegloticase Infusions Visit vs Methotrexate Baseline, n=2
[9] = End of Pegloticase Infusions Visit vs Pegloticase Baseline, n=2
[10] = End of Pegloticase Infusions Visit, n=2
[11] = Week 14 vs Methotrexate Baseline, n=14
[12] = Week 14 vs Pegloticase Baseline, n=14
[13] = Week 24 vs Methotrexate Baseline, n=11
[14] = Week 24 vs Pegloticase Baseline, n=11
[15] = Week 36 vs Methotrexate Baseline, n=9
[16] = Week 36 vs Pegloticase Baseline, n=9
[17] = Week 52/ET vs Methotrexate Baseline, n=3
[18] = Week 52/ET vs Pegloticase Baseline, n=3

B1: pegloticase (protein)
chain: TYKKNDEVEFVRTGYGKDMIKVLHIQRDGKYHSIKEVATTVQLTLSSKKDYLHGDNSDVIPTDTIKNTVNVLAKFKGIKSIETFAVTICEHFLSSFKHVIRAQVYVEEVPWKRFEKNGVKHVHAFIYTPTGTHFCEVEQIRNGPPVIHSGIKDLKVLKTTQSGFEGFIKDQFTTLPEVKDRCFATQVYCKWRYHQGRDVDFEATWDTVRSIVLQKFAGPYDKGEYSPSVQKTLYDIQVLTLGQVPEIEDMEISLPNIHYLNIDMSKMGLINKEEVLLPLDNPYGKITGTVKRKLSSRL
modifications: monomethoxy PEG conjugated; Krystexxa Sequence
notes: covalent conjugate of uricase produced by a genetically modified strain of Escherichia coli and monomethoxypoly (ethylene glycol)
patients with IRs in whom loss of response (return to SUA >6 mg/dL) preceded the first IR ([1]; 20/21 pegloticase-treated patients with IRs): 95%
incidence of infusion reactions ([1]; pegloticase 8 mg every 2 weeks (biweekly dosing)): 26%
incidence of infusion-related reactions ([1]; pegloticase 8 mg every-4-week dosing regimen): 40%
frequency of anaphylaxis ([1]; pre-marketing controlled clinical trials): 6.5%
stability of pegloticase diluted in infusion bags [2]: 4 h
patients with antibody titer exceeding 1:2430 at any time who maintained a response ([3]; 7 of 65 patients): 10.8%
patients with antibody titers exceeding 1:2430 who developed IRs ([3]; 31 of 52 patients): 60%
patients who never had an antibody titer above 1:2430 (comparison for maintained response) ([3]; 58/65): 89.2%
participants with high antibody titers who maintained a response (serum urate <6 mg/dL) ([3]; second study): 1 of 52 participants
Swollen Joint Count, Observed, Mean (SD) ([4]; Day 1, n=14): 5.3 (6.94)
Swollen Joint Count, Observed, Median ([4]; Day 1, n=14): 3.5
Tender Joint Count, Observed, Mean (SD) ([4]; Day 1, n=14): 9.6 (11.03)
Tender Joint Count, Observed, Median ([4]; Day 1, n=14): 7.0
Swollen Joint Count, Change from Baseline, Mean (SD) [4, 5]: −0.7 (5.21)
Swollen Joint Count, Change from Baseline, Median [4, 5]: 0.5
Tender Joint Count, Change from Baseline, Mean (SD) [4, 5]: −1.9 (9.75)
Tender Joint Count, Change from Baseline, Median [4, 5]: 0.0
Swollen Joint Count, Change from Baseline, Mean (SD) [4, 6]: −1.0 (1.73)
Swollen Joint Count, Change from Baseline, Median [4, 6]: 0.0
Tender Joint Count, Change from Baseline, Mean (SD) [4, 6]: 0.7 (5.13)
Tender Joint Count, Change from Baseline, Median [4, 6]: 2.0
Swollen Joint Count, Change from Baseline, Mean (SD) [4, 7]: −3.3 (3.06)
Swollen Joint Count, Change from Baseline, Median [4, 7]: −4.0
Tender Joint Count, Change from Baseline, Mean (SD) [4, 7]: −2.7 (4.16)
Tender Joint Count, Change from Baseline, Median [4, 7]: −4.0
Swollen Joint Count, Observed, Mean (SD) ([4]; Early Termination Visit, n=3): 0.7 (0.58)
Swollen Joint Count, Observed, Median ([4]; Early Termination Visit, n=3): 1.0
Tender Joint Count, Observed, Mean (SD) ([4]; Early Termination Visit, n=3): 7.7 (8.96)
Tender Joint Count, Observed, Median ([4]; Early Termination Visit, n=3): 3.0
Swollen Joint Count, Change from Baseline, Mean (SD) [4, 8]: −7.0 (4.24)
Swollen Joint Count, Change from Baseline, Median [4, 8]: −7.0
Tender Joint Count, Change from Baseline, Mean (SD) [4, 8]: −12.0 (7.07)
Tender Joint Count, Change from Baseline, Median [4, 8]: −12.0
Swollen Joint Count, Change from Baseline, Mean (SD) [4, 9]: −2.0 (2.83)
Swollen Joint Count, Change from Baseline, Median [4, 9]: −2.0
Tender Joint Count, Change from Baseline, Mean (SD) [4, 9]: −3.0 (5.66)
Tender Joint Count, Change from Baseline, Median [4, 9]: −3.0
Swollen Joint Count, Observed, Mean (SD) [4, 10]: 0.0 (0.00)
Swollen Joint Count, Observed, Median [4, 10]: 0.0
Tender Joint Count, Observed, Mean (SD) [4, 10]: 2.0 (2.83)
Tender Joint Count, Observed, Median [4, 10]: 2.0
Swollen Joint Count, Observed, Mean (SD) ([4]; Week 14, n=14): 1.7 (3.73)
Swollen Joint Count, Observed, Median ([4]; Week 14, n=14): 0.0
Tender Joint Count, Observed, Mean (SD) ([4]; Week 14, n=14): 4.6 (6.16)
Tender Joint Count, Observed, Median ([4]; Week 14, n=14): 2.0
Swollen Joint Count, Change from Baseline, Mean (SD) [4, 11]: −4.3 (7.38)
Swollen Joint Count, Change from Baseline, Median [4, 11]: −2.0
Tender Joint Count, Change from Baseline, Mean (SD) [4, 11]: −7.0 (14.20)
Tender Joint Count, Change from Baseline, Median [4, 11]: 0.0
Swollen Joint Count, Change from Baseline, Mean (SD) [4, 12]: −3.6 (7.04)
Swollen Joint Count, Change from Baseline, Median [4, 12]: −2.5
Tender Joint Count, Change from Baseline, Mean (SD) [4, 12]: −5.1 (8.12)
Tender Joint Count, Change from Baseline, Median [4, 12]: −5.0
Swollen Joint Count, Observed, Mean (SD) ([4]; Week 24, n=11): 0.5 (1.21)
Swollen Joint Count, Observed, Median ([4]; Week 24, n=11): 0.0
Tender Joint Count, Observed, Mean (SD) ([4]; Week 24, n=11): 2.6 (3.88)
Tender Joint Count, Observed, Median ([4]; Week 24, n=11): 0.0
Swollen Joint Count, Change from Baseline, Mean (SD) [4, 13]: −6.6 (9.03)
Swollen Joint Count, Change from Baseline, Median [4, 13]: −3.0
Tender Joint Count, Change from Baseline, Mean (SD) [4, 13]: −10.2 (14.27)
Tender Joint Count, Change from Baseline, Median [4, 13]: −4.0
Swollen Joint Count, Change from Baseline, Mean (SD) [4, 14]: −5.1 (6.66)
Swollen Joint Count, Change from Baseline, Median [4, 14]: −3.0
Tender Joint Count, Change from Baseline, Mean (SD) [4, 14]: −6.8 (8.16)
Tender Joint Count, Change from Baseline, Median [4, 14]: −4.0
Swollen Joint Count, Observed, Mean (SD) ([4]; Week 36, n=9): 0.1 (0.33)
Swollen Joint Count, Observed, Median ([4]; Week 36, n=9): 0.0
Tender Joint Count, Observed, Mean (SD) ([4]; Week 36, n=9): 2.1 (4.54)
Tender Joint Count, Observed, Median ([4]; Week 36, n=9): 0.0
Swollen Joint Count, Change from Baseline, Mean (SD) [4, 15]: −7.8 (10.81)
Swollen Joint Count, Change from Baseline, Median [4, 15]: −3.0
Tender Joint Count, Change from Baseline, Mean (SD) [4, 15]: −12.3 (14.56)
Tender Joint Count, Change from Baseline, Median [4, 15]: −7.0
Swollen Joint Count, Change from Baseline, Mean (SD) [4, 16]: −6.2 (8.15)
Swollen Joint Count, Change from Baseline, Median [4, 16]: −4.0
Tender Joint Count, Change from Baseline, Mean (SD) [4, 16]: −7.8 (8.94)
Tender Joint Count, Change from Baseline, Median [4, 16]: −4.0
Swollen Joint Count, Change from Baseline, Mean (SD) [4, 17]: −21.0 (9.64)
Swollen Joint Count, Change from Baseline, Median [4, 17]: −25.0
Tender Joint Count, Change from Baseline, Mean (SD) [4, 17]: −24.0 (21.38)
Tender Joint Count, Change from Baseline, Median [4, 17]: −17.0
Swollen Joint Count, Change from Baseline, Mean (SD) [4, 18]: −13.0 (13.00)
Swollen Joint Count, Change from Baseline, Median [4, 18]: −13.0
Tender Joint Count, Change from Baseline, Mean (SD) [4, 18]: −16.0 (17.52)
Tender Joint Count, Change from Baseline, Median [4, 18]: −15.0
Swollen Joint Count, Observed, Mean (SD) ([4]; Week 52/ET, n=3): 0.0 (0.00)
Swollen Joint Count, Observed, Median ([4]; Week 52/ET, n=3): 0.0
Tender Joint Count, Observed, Mean (SD) ([4]; Week 52/ET, n=3): 5.3 (3.21)
Tender Joint Count, Observed, Median ([4]; Week 52/ET, n=3): 4.0
